Test results reported in US20170247459A1, “COMBINATION THERAPY OF ANTIBODIES AGAINST HUMAN CSF-1R AND USES THEREOF” (HOFFMANN-LA ROCHE INC., priority 2012, published 2017).

Assays:
Test in all cases: cell-based or functional assay
[1] = biological target: CSF-1R on cynomolgous monocytes (cynomolgous)
[2] = biological target: human mutant CSF-1R L301S Y969F, full-length, on NIH 3T3 cells (human) (UniProt P07333)
[3] = biological target: human wildtype CSF-1R (wt CSF-1R), full-length, on cells (human) (UniProt P07333)

Row | Substance | % inhibition (of survival) = (100%-% survival), cynomolgous monocytes at 5 µg/ml antibody [1] [%] | % survival of cynomolgous monocytes at 5 µg/ml antibody (CellTiterGlo) [1] [%] | Mutant CSF-1R IC30 (cell viability, 3D spheroids, CellTiterGlo) [2] [µg/mL] | Mutant CSF-1R IC50 (cell viability, 3D spheroids, CellTiterGlo) [2] [µg/mL] | wtCSF-1R IC30 (cell viability, 3D spheroids, CellTiterGlo) [3] [µg/mL] | wtCSF-1R IC50 (cell viability, 3D spheroids, CellTiterGlo) [3] [µg/mL]
1 | Anti CSF-1R SC 2-4A5 (Santa Cruz Biotechnology, US) (antibody) | 69 | 31 | 2.56 | 10 | 16.6 | 10
2 | goat polyclonal anti-CSF-1R antibody ab10676 (abcam) | – | – | > 20 | – | 14.2 | –
